The data set can be described thus: collision cross section of unmodified peptide (TIMS, N2, iRT-aligned); higher = larger / more extended gas-phase ion. Summed up:
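Values are averages of 1–3 technical replicates of the most abundant feature for each charge state. Collision cross section was obtained from the Mason-Schamp equation after 1/K0 calibration with three reference ions and run-wise alignment to the median iRT peptide deviation. Synthetic peptide pools (iRT standard spiked 1:40) were separated on a 120-min nanoflow C18 gradient at 60 °C, analysed on a timsTOF Pro/HT (dda-PASEF, nitrogen, ~2.4 mbar) and identified with MaxQuant.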

± gives the standard deviation.

The source of these data is the supplement of paper PMC10598134.

In the case of SGYSSPGSPGTPGSR, the collision cross section (charge state: 2) stood at 379.95 ± 0.14 Å².
Under “charge state: 2”, FLQEFYQDDELGK displayed a collision cross section of 424.29 ± 0.5 Å².
With VTLEVGKVIQQGR, the collision cross section (charge state: 2) was found to be 428.45 ± 2.5 Å² and the collision cross section (charge state: 3) amounted to 496.48 ± 2.3 Å².
On to GTITVSAQELKDNR, for which the collision cross section came out at 437.3 ± 1.6 Å² (charge state: 2) and 507.47 ± 4.6 Å² (charge state: 3).
For RGATPPAPPR the same measures were 338.24 ± 0.44 Å² and 461.07 ± 2.4 Å².
The corresponding values for GGSAGGRGFFR are 360.79 ± 0.54 Å² and 432.59 ± 6.7 Å².
On to DYVSQFEGSALGK, for which, for the setting “charge state: 2”, the collision cross section came out at 385.54 ± 0.47 Å².
Turning to PLRAASPFR, the collision cross section stood at 352.16 ± 0.084 Å² (charge state: 2) and 447.55 ± 5.2 Å² (charge state: 3).
In the case of PATSYVR, the collision cross section (charge state: 2) worked out at 307.47 ± 0.15 Å².
Turning to DFDTALKHYDK, the collision cross section (charge state: 2) worked out at 391.79 ± 0.64 Å² and the collision cross section (charge state: 3) is 447.79 ± 3.3 Å².
Take RGFGFGGFAISAGK: the collision cross section runs as follows: (charge state: 2) 395.08 ± 0.89 Å²; (charge state: 3) 486.34 ± 2.6 Å².
As for VVPGYGHAVLR, the collision cross section reads like this: (charge state: 2) 378.3 ± 0.16 Å²; (charge state: 3) 449.83 ± 0.86 Å².
For LQEKVESAQSEQK the same measures were 416.22 ± 2.1 Å² and 487.5 ± 6.9 Å².
SEGFDTYR yielded a collision cross section (charge state: 2) of 330.1 ± 0.73 Å².
Still for that read-out and setting: to GEAGPTGPQGEPGVR belongs 385.03 ± 0.4 Å².
For TQAYQDQKPGTSGLR, the collision cross section by setting is: (charge state: 2) 425.76 ± 1.4 Å²; (charge state: 3) 489.83 ± 5.9 Å².
Where the note is “charge state: 3”, DSINFLDHINGKK displayed a collision cross section of 459.87 ± 3.8 Å².
In turn, GEKGLPGLAGDHGEFGEK showed a collision cross section (charge state: 3) of 564.38 ± 1.3 Å².
The substance VEELEGEITTLNHK yielded a collision cross section (charge state: 2) of 424.1 ± 0.66 Å² and a collision cross section (charge state: 3) of 513.8 ± 3.5 Å².
The corresponding values for GEPGIPAIPGIRGPK are 382.37 ± 0.58 Å² and 515.69 ± 0.34 Å².
MTLSVLSR had a collision cross section (charge state: 2) of 327.34 ± 0.14 Å².
GYGVIFANGNR came in with a collision cross section (charge state: 2) of 361.55 ± 0.6 Å².
Consider GVEAVGSYAENQR, for which the collision cross section runs as follows: (charge state: 2) 378.71 ± 0.16 Å²; (charge state: 3) 463.38 ± 1.1 Å².
IQQELQTAKK: the collision cross section was 374.48 ± 0.53 Å² (charge state: 2) and 429.26 ± 3.7 Å² (charge state: 3).
The corresponding values for GGGFGAHGRGR are 350.63 ± 2.6 Å² and 420.87 ± 5.1 Å².
Consider TPLTHALPGLSEQEGQK, for which the collision cross section (charge state: 3) amounted to 495.4 ± 0.86 Å².
Regarding VGADGTVFATR, the collision cross section (charge state: 2) is 348.87 ± 0.14 Å².
Still for that read-out and setting: to AQPSASLGVGYR belongs 364.53 ± 0.14 Å².
For the substance VLTANSNPSSPSAAKR, the collision cross section reads like this: (charge state: 2) 431.51 ± 2 Å²; (charge state: 3) 517.98 ± 8.8 Å².
With TAGSSGVTAGRPRPTAR, under “charge state: 3”, the collision cross section is on record as 538.39 ± 0.86 Å².
Take DASTLQSQKAEGTGDAK: the collision cross section reads like this: (charge state: 2) 442.88 ± 2.3 Å²; (charge state: 3) 495.18 ± 2.5 Å².
For the substance ITLSKHQNVQLPR, the collision cross section by setting is: (charge state: 2) 434.86 ± 3.1 Å²; (charge state: 3) 515.94 ± 19 Å².
Where the note is “charge state: 2”, VFLDCCNYITELR had a collision cross section of 421.63 ± 0.67 Å².
On the same count and under the same terms, to GEYFGEK belongs 311.09 ± 0.97 Å².
HFGPVPPSQGRGR yielded a collision cross section (charge state: 3) of 493.79 ± 0.89 Å².
For the substance LTSLNVKYNNDK, the collision cross section (charge state: 2) turned out to be 409.04 ± 2 Å² and the collision cross section (charge state: 3) was 487.29 ± 4.9 Å².
For the setting “charge state: 2”, GPPGPPGK came in with a collision cross section of 285.24 ± 0.86 Å².
Consider TEVNSGFFYK, for which the collision cross section (charge state: 2) is given as 366.57 ± 0.48 Å².
